In the supplement of paper PMC10724198:
± gives the standard deviation of the averaged measurements.

System: Saccharomyces cerevisiae
Assay: protein stability index of tFT-peptide fusion (C-terminal peptide) (PSI (0-1 scale)); higher = more stable (slower turnover)
Conditions: genetic background: wild type; temperature: 30 C
Description: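 Multiplexed protein stability (MPS) profiling in S. cerevisiae. Random 12-aa peptides (tFT-X12 library) are fused to the C-terminus of a sfGFP-mCherry tandem fluorescent timer, after mCherry and a GGGS linker. Cells are FACS-sorted into 8 mCherry/sfGFP bins and deep-sequenced. The protein stability index (PSI) is the read-weighted bin average, scaled from 0 (unstable) to 1 (stable). Only peptides with >10 reads are reported; cells were grown at 30 °C in SC-His with glucose.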
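Also: PSI is a weighted mean of sequencing reads over stability bins, variants kept only with over 10 reads, mCherry proximal and sfGFP distal, peptide attached via GGGS linker.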

Sequence | protein stability index
AAARTGIATLRT | 0.691 ± 0.01
AAGCSSGQAQFG | 0.727 ± 0.09
AAGPGRWRWRGA | 0.643 ± 0.0093
AAGWLWVWGVEG | 0.6429 ± 0.0017
AAHRRRRSPPRP | 0.5909 ± 0.0014
AALHPLRISASV | 0.646 ± 0.081
AALIHLSFYSPS | 0.67 ± 0.02
AALTPSCPLHLP | 0.713 ± 0.024
AAMKQAIKGPVK | 0.696 ± 0.019
AAPRPYRPCYPN | 0.664 ± 0.029
AAVLSYLKHLFV | 0.627 ± 0.022
AAVSSDASVLRF | 0.628 ± 0.027
ACGAWAVVGLLG | 0.679 ± 0.042
ACGDRGGRCSEG | 0.678 ± 0.089
ACPGGPFALRSH | 0.666 ± 0.029
ACRVAVGRLFGS | 0.717 ± 0.037
ACSHFLEEFCFF | 0.75 ± 0.046
ACVSGSGLCLFV | 0.694 ± 0.04
ADAKVGVIWVAL | 0.628 ± 0.08
ADCRSRPMREGS | 0.665 ± 0.036
ADMPPEFKPALS | 0.637 ± 0.073
ADSGAHTISTVC | 0.663 ± 0.01
ADWTATTDPTST | 0.748 ± 0.019
AEAKRKSTYKRW | 0.607 ± 0.026
AEERATKNGARQ | 0.67 ± 0.055

Sequence | protein stability index
AEGKGRCRRSCW | 0.693 ± 0.072
AERCVLEKSPRL | 0.743 ± 0.064
AFDKDLLGMMFS | 0.692 ± 0.024
AFDRVPLVFVST | 0.564 ± 0.011
AFFLDKASQLES | 0.694 ± 0.05
AGALGADRWGLK | 0.741 ± 0.0085
AGAWLVDAAVGV | 0.612 ± 0.017
AGAWVREVVGWG | 0.707 ± 0.014
AGERQIRISING | 0.691 ± 0.031
AGFGLRGWMIPP | 0.68838 ± 0.00018
AGGGLGGVGDVV | 0.681 ± 0.052
AGGRGNVGGVHV | 0.679 ± 0.048
AGGSTGMGARSR | 0.688 ± 0.015
AGGTRRRTGRRR | 0.7019 ± 0.0024
AGHTTVTNPLPQ | 0.738 ± 0.079
AGLACWGGVGER | 0.693 ± 0.0079
AGLLLGGRVFGW | 0.708 ± 0.067
AGLPEKARDRGS | 0.638 ± 0.045
AGLRRLRDFGSN | 0.726 ± 0.037
AGLSVRSILLSI | 0.599 ± 0.039
AGPPPIFGHHTQ | 0.765 ± 0.036
AGSRPCPGWPPG | 0.691 ± 0.011
AGVECADRVLWG | 0.774 ± 0.066
AGVGVSSSLLPL | 0.664 ± 0.025
AGWGWGARQGAL | 0.659 ± 0.037

Sequence | protein stability index
AGWPWAGRSCWG | 0.728 ± 0.044
AHGRFTISLAGL | 0.743 ± 0.057
AHSSPMGYLPPF | 0.693 ± 0.11
AHYPGRAHLLCL | 0.607 ± 0.02
AIIERVEQIVTA | 0.522 ± 0.052
AISVCCFLCEFF | 0.509 ± 0.023
AIVRFAPWPVPR | 0.701 ± 0.043
AKKAEKQKKEKT | 0.82 ± 0.019
AKLFSEGLQMHH | 0.729 ± 0.049
AKNQSTGCKKKV | 0.684 ± 0.043
AKQVVGASWIVA | 0.607 ± 0.044
AKRRTNRLHCNA | 0.6427 ± 0.0029
AKVRGGKGLRLV | 0.6687 ± 0.003
ALAPSAFSSSPL | 0.6645 ± 0.0022
ALAQSGNVVLDR | 0.751 ± 0.1
ALASPAPLPRRD | 0.7561 ± 0.0057
ALATPLWDLMPP | 0.606 ± 0.072
ALCLDGCSLGEF | 0.704 ± 0.017
ALEAAWGGLGGS | 0.695 ± 0.013
ALFPRLVRPGFV | 0.697 ± 0.036
ALGPPAPGPCRA | 0.654 ± 0.021
ALGVGLDEILVM | 0.556 ± 0.0093
ALLMDENTRVLF | 0.649 ± 0.051
ALLPSAWPFRPP | 0.611 ± 0.044
ALLTPPPLPPTV | 0.61 ± 0.061

Sequence | protein stability index
ALPLSPRTHRCS | 0.503 ± 0.097
ALRGWIRRRFPV | 0.671 ± 0.03
ALRPLLGRDHKV | 0.68 ± 0.042
ALRVAVIANMRV | 0.5724 ± 0.0057
ALRVGTGTVRFE | 0.712 ± 0.051
ALSCLVCLFGLL | 0.545 ± 0.054
ALSDPDTVRLYA | 0.7107 ± 0.0032
ALSPPPSLRLPF | 0.7388 ± 0.0023
ALSVSLFKDGLF | 0.672 ± 0.063
ALTFYYRGWSGL | 0.619 ± 0.019
ALWALSTHHVRK | 0.73866 ± 0.00051
ANSRVVSFRLSG | 0.693 ± 0.047
APAPPPSPPLPS | 0.68 ± 0.0081
APAPTLPALPPL | 0.745 ± 0.026
APARPCPLLSTS | 0.612 ± 0.034
APASSSAHTPFP | 0.723 ± 0.019
APAVPITPPPFP | 0.696 ± 0.05
APGPAAPGHGYL | 0.744 ± 0.039
APKVICPHLIRL | 0.68 ± 0.013
APLPPLYPPSPP | 0.648 ± 0.065
APLPPPPDPPLP | 0.695 ± 0.025
APLPPPRPPPSP | 0.657 ± 0.081
APPLPTHYCPHL | 0.841 ± 0.23
APPPAPPPPPQT | 0.662 ± 0.0089
APPPFRAPPGFR | 0.845 ± 0.093

Sequence | protein stability index
APPPPPIPAPPP | 0.714 ± 0.038
APPPPPVPLPPP | 0.722 ± 0.024
APPPPRAPTPPP | 0.696 ± 0.011
APPPSPLPLPSL | 0.689 ± 0.08
APPPSPSPPPPL | 0.712 ± 0.039
APPRLTTLSMNL | 0.696 ± 0.0073
APPRPPTLHRPH | 0.721 ± 0.0085
APPTSPLPIPSP | 0.698 ± 0.017
APRHSSLHPAPS | 0.6986 ± 0.0029
APRPPSLSPSPP | 0.681 ± 0.0076
APRPSPRPTPPS | 0.662 ± 0.078
APRRAPSRRIRL | 0.748 ± 0.016
APSDRRRTPTPT | 0.69 ± 0.013
APSLPPVVQPLI | 0.663 ± 0.023
APSPLHFPPPPT | 0.67 ± 0.0048
APSPPSSPSAPP | 0.643 ± 0.052
APSVSKNSEVRK | 0.681 ± 0.019
APTPPPPSPLAP | 0.73 ± 0.051
AQDECVMVWYVG | 0.651 ± 0.013
AQDSFGFPPPPS | 0.726 ± 0.018
AQPIPTLYRAPP | 0.729 ± 0.049
AQRNSPIVLAVL | 0.527 ± 0.0063
ARAGQGEWGGGV | 0.701 ± 0.033
ARALCYSFPPAL | 0.77 ± 0.1
ARGALPHHVSCV | 0.691 ± 0.11

Sequence | protein stability index
ARGKYKKLKIKE | 0.733 ± 0.018
ARIQECLTKASK | 0.607 ± 0.095
ARLCLVRTKRHS | 0.684 ± 0.044
ARLGNPHFKIFS | 0.684 ± 0.089
ARLPCVVFLLDE | 0.666 ± 0.036
ARPASGCFCLFR | 0.655 ± 0.071
ARRPGGGRSGGN | 0.672 ± 0.039
ARSSILRCRGYR | 0.747 ± 0.095
ASAPPHVSAPSP | 0.654 ± 0.012
ASGASEVGACAG | 0.685 ± 0.033
ASGGIIRWGLWM | 0.694 ± 0.029
ASGIYSRFSTSS | 0.624 ± 0.052
ASLPPLSPPSSL | 0.71 ± 0.045
ASMRIVWWFGML | 0.495 ± 0.047
ASPAWYARGISR | 0.733 ± 0.033
ASPLFFHPSAPH | 0.6891 ± 0.0046
ASPLSIPPLSPS | 0.633 ± 0.073
ASPPAYCPPPPP | 0.666 ± 0.039
ASPPPPRISAWL | 0.7159 ± 0.0036
ASPSYLFFLLPC | 0.5788 ± 0.0018
ASQSFSFITFTY | 0.645 ± 0.056
ASRPAPPAPAFL | 0.675 ± 0.005
ASRWVLLVGGGV | 0.652 ± 0.056
ASSDRWVVYLYG | 0.685 ± 0.0083
ASSLLPIPPPPF | 0.706 ± 0.012

Sequence | protein stability index
ASSLPIWLVWWL | 0.536 ± 0.02
ASSSLLRCFSRF | 0.648 ± 0.062
ASTRPFYVSSFG | 0.741 ± 0.13
ATFSVMRGQHGQ | 0.686 ± 0.0057
ATGFSLLDFSMP | 0.679 ± 0.069
ATHSMSYRGSTK | 0.662 ± 0.081
ATKKRKKKNKQT | 0.756 ± 0.11
ATLDVTALRQES | 0.636 ± 0.011
ATPVPTPRPAAP | 0.729 ± 0.048
ATPYGLTPNYSG | 0.676 ± 0.15
ATRRYQYSPHKV | 0.651 ± 0.026
ATTPPSSLFGPL | 0.768 ± 0.072
ATVKRAVPPVFR | 0.7 ± 0.041
AVARYPPHCSHN | 0.768 ± 0.13
AVCVSVCGRLLV | 0.5492 ± 0.0023
AVGWQRQTEQRR | 0.684 ± 0.088
AVLGGLIYECVV | 0.634 ± 0.018
AVLGRRSQHASA | 0.6832 ± 0.0036
AVNADMHDKKIA | 0.7 ± 0.036
AVPAPPPTLPPI | 0.685 ± 0.051
AVPSPVTLPTTS | 0.641 ± 0.066
AVQTTGRAGRVG | 0.683 ± 0.056
AVVRTVVCLNVL | 0.573 ± 0.013
AVVVCGGGGWWA | 0.687 ± 0.068
AVVWMGAGVGGV | 0.718 ± 0.03

Sequence | protein stability index
AVWLGGGGRFVG | 0.78 ± 0.034
AWAVGPTICRRG | 0.7219 ± 0.0021
AWLPVLPLVSFF | 0.621 ± 0.062
AWLTTSGLVGSD | 0.725 ± 0.029
AYYRPQNLSPVT | 0.675 ± 0.083
CAADYRRHLQRP | 0.669 ± 0.026
CAAVPLLASDVR | 0.688 ± 0.011
CAAYIYLGGSFF | 0.707 ± 0.033
CACIPLHFAPSL | 0.683 ± 0.04
CANFIGAVPGSV | 0.686 ± 0.011
CAQLVLDNHTGP | 0.69 ± 0.079
CAVLGGGVVWGA | 0.668 ± 0.028
CAVPAVIDLDKF | 0.65 ± 0.087
CCADPWRIARPW | 0.729 ± 0.042
CCCGSGFFLLKV | 0.525 ± 0.021
CCFPPLSPPASP | 0.656 ± 0.072
CCGHEFEIYNWV | 0.786 ± 0.1
CCILTHFSSCET | 0.679 ± 0.011
CCTPSFANVRDG | 0.6998 ± 0.0027
CECAEGRGKDRS | 0.591 ± 0.0069
CELCVCKHGGKG | 0.702 ± 0.013
